Source: patent US20120052075A1 (H LUNDBECK A S, published 2012)
Each block holds one molecule with its values, some of them ahead of it.

How the values were obtained:
[1] = target: soluble SorCS2 (extracellular domain of SorCS2), immobilized on the Biacore chip (Homo sapiens in the sequence list; not stated for the assay) (UniProt Q96PQ0); experiment: SPR (BIAcore), soluble SorCS2 immobilized, propeptide at 20 nM and 50 nM
[2] = target: T1, soluble SorCS2 (extracellular domain of SorCS2), immobilized on the Biacore chip (Homo sapiens in the sequence list; not …, UniProt Q96PQ0 51-1078); experiment: SPR (BIAcore), soluble SorCS2 immobilized, p75 ECD at 1 uM
T1 construct: also called immobilized soluble SorCS2
T1 sequence (Q96PQ0 51-1078 S716P limits assumed): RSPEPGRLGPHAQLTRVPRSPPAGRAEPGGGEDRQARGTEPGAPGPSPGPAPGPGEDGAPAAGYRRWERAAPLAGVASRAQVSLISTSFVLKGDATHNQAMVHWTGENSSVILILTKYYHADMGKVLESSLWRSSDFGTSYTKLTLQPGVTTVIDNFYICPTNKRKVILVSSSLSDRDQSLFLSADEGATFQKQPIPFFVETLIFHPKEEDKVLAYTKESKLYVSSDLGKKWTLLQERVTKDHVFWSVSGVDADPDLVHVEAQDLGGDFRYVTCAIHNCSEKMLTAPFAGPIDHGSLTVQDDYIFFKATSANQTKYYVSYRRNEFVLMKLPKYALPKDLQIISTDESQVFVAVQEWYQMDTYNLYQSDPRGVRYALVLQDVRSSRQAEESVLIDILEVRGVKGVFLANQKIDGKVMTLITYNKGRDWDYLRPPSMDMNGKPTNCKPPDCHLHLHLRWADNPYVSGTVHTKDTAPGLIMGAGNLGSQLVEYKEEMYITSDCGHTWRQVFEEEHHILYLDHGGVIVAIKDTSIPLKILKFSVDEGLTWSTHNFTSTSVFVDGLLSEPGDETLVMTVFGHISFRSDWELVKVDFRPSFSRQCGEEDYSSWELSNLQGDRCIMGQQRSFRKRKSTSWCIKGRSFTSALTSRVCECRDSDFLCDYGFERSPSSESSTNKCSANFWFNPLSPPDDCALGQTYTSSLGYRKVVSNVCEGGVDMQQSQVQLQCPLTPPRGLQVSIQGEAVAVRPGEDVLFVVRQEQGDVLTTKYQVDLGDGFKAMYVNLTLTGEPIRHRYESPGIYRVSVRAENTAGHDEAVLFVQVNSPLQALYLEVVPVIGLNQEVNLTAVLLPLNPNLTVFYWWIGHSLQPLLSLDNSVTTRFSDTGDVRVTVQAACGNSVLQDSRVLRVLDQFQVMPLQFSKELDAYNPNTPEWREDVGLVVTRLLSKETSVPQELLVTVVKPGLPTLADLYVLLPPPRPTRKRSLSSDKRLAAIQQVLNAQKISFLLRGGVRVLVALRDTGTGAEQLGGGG
Procedure: FIG. 6: Physical interaction between SorCS2 and p75^NTR. A, HEK293 cells stably transfected with SorCS2 and p75^NTR encoding vectors were crosslinked with DSP (Pierce) and subsequently lysed. The cell lysate was incubated with antibody against SorCS2 bound to Gammabind beads (GE Healthcare). The precitated complexes were eluted from the washed beads with SDS loading buffer. […] The presence of p75^NTR and IgG heavy is indicated. HEK293 cells stably transfected with a p75^NTR encoding plasmid alone were used as negative control. B, surface plasmon resonance experiment (BIAcore) showing the direct interaction of soluble full-length extracellular domain of p75^NTR (p75 ECD) with immobilized soluble SorCS2. The p75 ECD concentration used was 1 μM.
HEK293 cells stably transfected with plasmids encoding SorCS2 and p75^NTR were crosslinked with DSP (Pierce) and subsequently lysed. The cell lysate was incubated with antibody against SorCS2 bound to Gammabind beads (GE Healthcare). Precipitated complexes were eluted from the washed beads with SDS loading buffer. […] A biosensor chip from Biacore (CM5, cat.no. BR-1000-14) was activated using the NHS/EDC method as described by the supplier followed by coating with SorCS2 (FIG. 6B).

[3] = target: T1, soluble SorCS2 (extracellular domain of …); experiment: SPR (BIAcore), soluble SorCS2 immobilized, BDNF at 10 nM and 20 nM

Sequence of soluble SorCS2 (extracellular domain of SorCS2), immobilized on the Biacore chip (Homo sapiens in the sequence list; not stated for the assay) (Q96PQ0 51-1078 S716P limits assumed): as above

Kd [1]: 15 nM
Molecule: BDNF propeptide (from UniProt P23560 19-128) (ligand)

Kd [2]: ~10 nM
B1: soluble full-length extracellular domain of p75^NTR (receptor)
chain: KEACPTGLYTHSGECCKACNLGEGVAQPCGANQTVCEPCLDSVTFSDVVSATEPCKPCTECVGLQSMSAPCVEADDAVCRCAYGYYQDETTGRCEACRVCEAGSGLVFSCQDKQNTVCEECPDGTYSDEANHVDPCLPCTVCEDTERQLRECTRWADAECEEIPGRWITRSTPPEGSDSTAPSTQEPEAPPEQDLIASTVAGVVTTVMGSSQPVVTRGTTDN
notes: Whole entry named; also called p75 ECD

Kd [3]: 5 nM
B2: mature BDNF (ligand)
chain: HSDPARRGELSVCDSISEWVTAADKKTAVDMSGGTVTVLEKVPVSKGQLKQYFYETKCNPMGYTKEGCRGIDKRHWNSQCRTTQSYVRALTMDSKKRIGWRFIRIDTSCVCTLTIKRGR
